One test has as its target QTGG (Homo sapiens, UniProt P63165). The experiment in a line: Isothermal titration calorimetry. It is filed as binding. For orientation: In ITC the heat of successive injections is recorded.
A further test addresses DV12 ([…]) (Homo sapiens, UniProt P63165). Put plainly: Biolayer interferometry. It is filed as binding. For orientation: Biolayer interferometry detects binding as a change in optical thickness at a sensor tip.
Test [1] addresses T1, QTGG, short SUMO-1 remnant after trypsin and Glu-C digestion.
T1 sequence (peptide): QTGG
Put plainly: ITC.

In a further test the target is SUMO-1 protein (UniProt P63165 1-97). Put plainly: BLI.

Bridge positions count the residues as written; N and C are the ends. Ends that are not written are not given here. Peptide text beside a SMILES is read from it.

Chain of SUMO-1 protein (P63165 1-97): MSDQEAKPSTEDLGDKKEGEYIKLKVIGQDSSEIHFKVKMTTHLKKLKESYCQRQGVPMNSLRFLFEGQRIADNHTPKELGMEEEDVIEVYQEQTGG

Usually Kd stands for the concentration at which binding is half-saturated. Lower therefore signals tighter binding. In turn, `CC(C)C[C@@H]1NC(=O)[C@H](Cc2c[nH]c3ccccc23)NC(=O)[C@H](CCCCN)NC(=O)[C@H](CCC(=O)O)NC(=O)[C@@H]2CCCN2C(=O)[C@@H](N)CSSC[C@@H](C(=O)O)NC(=O)[C@H]([C@@H](C)O)NC(=O)CNC1=O` [CP-1, CPEKWLGTC] (HELM PEPTIDE1{C.P.E.K.W.L.G.T.C}$PEPTIDE1,PEPTIDE1,1:R3-9:R3$$$V2.0; N-terminus and C-terminus assumed) yielded a Kd at QTGG of 71.8 nM.
The molecule `CC(C)C[C@H](NC(=O)[C@@H](N)CCCCN)C(=O)N[C@@H](CCCNC(=N)N)C(=O)N[C@@H](Cc1c[nH]c2ccccc12)C(=O)N[C@H](C(=O)N[C@@H](CC(=O)O)C(=O)N[C@@H](Cc1ccc(O)cc1)C(=O)N[C@@H](C)C(=O)N[C@@H](CCCCN)C(=O)N[C@@H](CCCCN)C(=O)N[C@@H](CCCNC(=N)N)C(=O)N[C@@H](CCCCN)C(=O)O)[C@@H](C)O` [PEP-4, KLRWTDYAKKRK] (H-KLRWTDYAKKRK-OH) returned a dissociation constant (Kd) on DV12 ([…]) of 2 nM.
As to CMTPNPTTC (disulfide 1-9) [CP-2 (…)], the Kd in test [1] is 1800 nM.
Same read-out and setting: the figure for CPEKWLGTC (disulfide 1-9) [CP-1 (…), cystine-linked cyclic peptide] is 71.8 nM.
KLRWTDYAKKRK [PEP-4 (KLRWTDYAKKRK)]: binding in the test with SUMO-1 protein was put at a Kd of 43.7 nM.

(Values after PMC11712212 (Chemical Science, 2024).)
